# Measured values taken from patent publication US20250304937A1.
# Read-outs that look alike come from different tables or passages of the source.
# Tests used:
# [1] = target: IVIg (Octagam), pool of human IgG (human); test: cell-based or functional assay
# [2] = target: IVIg (Octagam), pool of human IgG (human); test: cell-based or functional assay; remark: listed apart in the source
substance,measurement,setting,value
pCART124 (IdeS control with N terminal methionine and histidine tag) (enzyme),"2nd IgG heavy chain scIgG to F(ab')2, Conc. of enzyme (ng/ml), gel",[1],6000 ng/mL
same,"1st IgG heavy chain IgG to scIgG, Conc. of enzyme (ng/ml), gel",[2],1900 ng/mL
same,"2nd IgG heavy chain scIgG to F(ab')2, Conc. of enzyme (ng/ml), gel",[2],7500 ng/mL
